The values that follow are results of earlier work, collected in paper PMC7605336.

The target in the series is Spike protein RBD (SARS-CoV-2) (UniProt P0DTC2).

In the case of “SBP1 (ACE2 α1 helix-derived 23-mer peptide) α1 helix (from UniProt Q9BYF1)”, the dissociation constant Kd (commonly the equilibrium constant for the complex coming apart) is 47 nM.
